Experiments:
[1] = target: recombinant human VEGF (R&D, 293-VE-010) (human) (UniProt P15692); experiment: Octet HTX biolayer interferometry in 1x kinetics buffer; antibody at 10 ug/mL in buffer as loading sample, recombinant human VEGF 200 to 3.125 nM (data of FIG. 3A); ka Error printed 7.60E+02
[2] = target: recombinant human VEGF (R&D, 293-VE-010) (human) (UniProt P15692); experiment: Octet HTX biolayer interferometry; antibody prepared in conditioned medium at 100 ug/mL, diluted to 10 ug/mL in 1x kinetics buffer, as loading sample; recombinant human VEGF 200 to 3.125 nM (data of FIG. 3B); ka Error printed 8.54E+02
[3] = target: recombinant human VEGF (R&D, 293-VE-010) (human) (UniProt P15692); experiment: Octet HTX biosensor; antibody prepared in conditioned medium and diluted to 10 ug/mL in 1x kinetics buffer, recombinant human VEGF 200 nM to 3.125 nM
[4] = target: recombinant human VEGF (R&D, 293-VE-010) (human) (UniProt P15692); experiment: Octet HTX biosensor, 1x kinetics buffer; antibody at 10 ug/mL in buffer, recombinant human VEGF 200 nM to 3.125 nM
[5] = target: recombinant human VEGF (R&D, 293-VE-010) (human) (UniProt P15692); experiment: Octet HTX biolayer interferometry in 1x kinetics buffer; antibody at 10 ug/mL in buffer as loading sample, recombinant human VEGF 200 to 3.125 nM (data of FIG. 3A); kdis Error printed 1.34E-07
[6] = target: recombinant human VEGF (R&D, 293-VE-010) (human) (UniProt P15692); experiment: Octet HTX biolayer interferometry; antibody prepared in conditioned medium at 100 ug/mL, diluted to 10 ug/mL in 1x kinetics buffer, as loading sample; recombinant human VEGF 200 to 3.125 nM (data of FIG. 3B); kdis Error printed 1.27E-07

UniProt P15692, sequence (P15692 other isoform, or with tags, fused parts or gaps limits assumed): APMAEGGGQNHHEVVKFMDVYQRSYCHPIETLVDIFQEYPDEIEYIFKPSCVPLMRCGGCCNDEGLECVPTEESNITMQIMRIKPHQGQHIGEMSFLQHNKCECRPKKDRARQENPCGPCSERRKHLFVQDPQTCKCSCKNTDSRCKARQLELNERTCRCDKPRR

kon [1]: 232000 M⁻¹ s⁻¹
kon [2]: 286000 M⁻¹ s⁻¹
Kd [3]: < 1 pM
Kd [4]: < 1 pM
koff [5]: < 1e-07 s⁻¹
koff [6]: < 1e-07 s⁻¹
Substance: mouse anti-human VEGF monoclonal antibody (R&D, MAB293-100)

Source: patent publication US20250263675A1
